Measurements from IntAct's records for PubMed 31515488.

B1: Nucleoporin p54 (Homo sapiens), Q7Z3B4 (parent)
chain: MAFNFGAPSGTSGTAAATAAPAGGFGGFGTTSTTAGSAFSFSAPTNTGTTGLFGGTQNKGFGFGTGFGTTTGTSTGLGTGLGTGLGFGGFNTQQQQQTTLGGLFSQPTQAPTQSNQLINTASALSAPTLLGDERDAILAKWNQLQAFWGTGKGYFNNNIPPVEFTQENPFCRFKAVGYSCMPSNKDEDGLVVLVFNKKETEIRSQQQQLVESLHKVLGGNQTLTVNVEGTKTLPDDQTEVVIYVVERSPNGTSRRVPATTLYAHFEQANIKTQLQQLGVTLSMTRTELSPAQIKQLLQNPPAGVDPIIWEQAKVDNPDSEKLIPVPMVGFKELLRRLKVQDQMTKQHQTRLDIISEDISELQKNQTTSVAKIAQYKRKLMDLSHRTLQVLIKQEIQRKSGYAIQADEEQLRVQLDTIQGELNAPTQFKGRLNELMSQIRMQNHFGAVRSEERYYIDADLLREIKQHLKQQQEGLSHLISIIKDDLEDIKLVEHGLNETIHIRGGVFS
B2: Growth arrest and DNA damage-inducible protein GADD45 gamma (Homo sapiens), O95257 (parent)
chain: MTLEEVRGQDTVPESTARMQGAGKALHELLLSAQRQGCLTAGVYESAKVLNVDPDNVTFCVLAAGEEDEGDIALQIHFTLIQAFCCENDIDIVRVGDVQRLAAIVGAGEEAGAPGDLHCILISNPNEDAWKDPALEKLSLFCEESRSVNDWVPSITLPE
B3: Synaptotagmin-like protein 4 (Homo sapiens), Q96C24 (parent)
chain: MSELLDLSFLSEEEKDLILSVLQRDEEVRKADEKRIRRLKNELLEIKRKGAKRGSQHYSDRTCARCQESLGRLSPKTNTCRGCNHLVCRDCRIQESNGTWRCKVCAKEIELKKATGDWFYDQKVNRFAYRTGSEIIRMSLRHKPAVSKRETVGQSLLHQTQMGDIWPGRKIIQERQKEPSVLFEVPKLKSGKSALEAESESLDSFTADSDSTSRRDSLDKSGLFPEWKKMSAPKSQVEKETQPGGQNVVFVDEGEMIFKKNTRKILRPSEYTKSVIDLRPEDVVHESGSLGDRSKSVPGLNVDMEEEEEEEDIDHLVKLHRQKLARSSMQSGSSMSTIGSMMSIYSEAGDFGNIFVTGRIAFSLKYEQQTQSLVVHVKECHQLAYADEAKKRSNPYVKTYLLPDKSRQGKRKTSIKRDTINPLYDETLRYEIPESLLAQRTLQFSVWHHGRFGRNTFLGEAEIQMDSWKLDKKLDHCLPLHGKISAESPTGLPSHKGELVVSLKYIPASKTPVGGDRKKSKGGEGGELQVWIKEAKNLTAAKAGGTSDSFVKGYLLPMRNKASKRKTPVMKKTLNPHYNHTFVYNGVRLEDLQHMCLELTVWDREPLASNDFLGGVRLGVGTGISNGEVVDWMDSTGEEVSLWQKMRQYPGSWAEGTLQLRSSMAKQKLGL
B4: ATP synthase mitochondrial F1 complex assembly factor 2 (Homo sapiens), Q8N5M1 (parent)
chain: MWRSCLRLRDGGRRLLNRPAGGPSASMSPGPTIPSPARAYAPPTERKRFYQNVSITQGEGGFEINLDHRKLKTPQAKLFTVPSEALAIAVATEWDSQQDTIKYYTMHLTTLCNTSLDNPTQRNKDQLIRAAVKFLDTDTICYRVEEPETLVELQRNEWDPIIEWAEKRYGVEISSSTSIMGPSIPAKTREVLVSHLASYNTWALQGIEFVAAQLKSMVLTLGLIDLRLTVEQAVLLSRLEEEYQIQKWGNIEWAHDYELQELRARTAAGTLFIHLCSESTTVKHKLLKE
partner: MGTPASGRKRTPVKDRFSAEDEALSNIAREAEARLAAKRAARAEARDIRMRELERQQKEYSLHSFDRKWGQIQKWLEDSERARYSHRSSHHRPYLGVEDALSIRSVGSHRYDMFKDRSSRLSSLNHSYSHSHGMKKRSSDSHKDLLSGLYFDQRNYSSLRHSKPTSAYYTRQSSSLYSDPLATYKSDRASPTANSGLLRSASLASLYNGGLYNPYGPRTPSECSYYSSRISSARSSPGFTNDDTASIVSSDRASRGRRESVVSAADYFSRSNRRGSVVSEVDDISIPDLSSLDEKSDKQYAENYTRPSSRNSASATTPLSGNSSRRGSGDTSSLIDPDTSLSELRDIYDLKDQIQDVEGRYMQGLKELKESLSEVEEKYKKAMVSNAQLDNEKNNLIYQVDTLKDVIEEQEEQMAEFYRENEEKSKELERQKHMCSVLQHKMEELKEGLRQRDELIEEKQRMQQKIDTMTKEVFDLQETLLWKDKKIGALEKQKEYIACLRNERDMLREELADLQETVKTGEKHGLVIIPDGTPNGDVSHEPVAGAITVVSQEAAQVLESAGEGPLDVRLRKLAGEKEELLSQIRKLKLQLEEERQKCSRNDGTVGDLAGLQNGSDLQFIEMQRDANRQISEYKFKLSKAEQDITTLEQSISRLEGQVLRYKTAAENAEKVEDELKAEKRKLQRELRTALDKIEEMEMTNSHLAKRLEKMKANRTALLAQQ
B5: Zinc finger protein 581 (Homo sapiens), Q9P0T4 (parent)
chain: MLVLPSPCPQPLAFSSVETMEGPPRRTCRSPEPGPSSSIGSPQASSPPRPNHYLLIDTQGVPYTVLVDEESQREPGASGAPGQKKCYSCPVCSRVFEYMSYLQRHSITHSEVKPFECDICGKAFKRASHLARHHSIHLAGGGRPHGCPLCPRRFRDAGELAQHSRVHSGERPFQCPHCPRRFMEQNTLQKHTRWKHP

Variants of: B1
Details: with nup62_human NUP62, P37198
Chain of nup62_human NUP62, P37198 (P37198 whole entry): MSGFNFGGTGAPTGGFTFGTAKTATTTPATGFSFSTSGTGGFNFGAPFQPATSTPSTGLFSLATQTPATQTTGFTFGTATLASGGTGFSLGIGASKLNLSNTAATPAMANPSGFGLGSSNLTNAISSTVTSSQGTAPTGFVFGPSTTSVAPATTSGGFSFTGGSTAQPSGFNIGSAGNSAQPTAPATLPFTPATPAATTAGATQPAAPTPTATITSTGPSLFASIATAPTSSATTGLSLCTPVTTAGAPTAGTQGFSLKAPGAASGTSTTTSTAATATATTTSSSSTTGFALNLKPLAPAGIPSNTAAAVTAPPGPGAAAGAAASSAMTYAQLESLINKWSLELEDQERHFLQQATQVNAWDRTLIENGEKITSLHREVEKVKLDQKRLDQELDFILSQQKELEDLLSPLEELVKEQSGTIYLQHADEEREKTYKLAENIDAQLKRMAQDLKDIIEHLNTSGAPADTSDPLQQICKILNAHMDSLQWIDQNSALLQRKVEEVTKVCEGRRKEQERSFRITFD

| effect of a mutation on the interaction | Variant |
| --- | --- |
| with no effect | R385K |

Variants of: B1
Details: with nup58_human NUP58, Q9BVL2

| effect of a mutation on the interaction | Variant |
| --- | --- |
| with no effect | R385K |

Variants of: B1
Details: with hgs_human HGS

| effect of a mutation on the interaction | Variant |
| --- | --- |
| with no effect | R385K |

Variants of: B1
Details: with KRT15, P19012
Chain of KRT15, P19012 (P19012 whole entry): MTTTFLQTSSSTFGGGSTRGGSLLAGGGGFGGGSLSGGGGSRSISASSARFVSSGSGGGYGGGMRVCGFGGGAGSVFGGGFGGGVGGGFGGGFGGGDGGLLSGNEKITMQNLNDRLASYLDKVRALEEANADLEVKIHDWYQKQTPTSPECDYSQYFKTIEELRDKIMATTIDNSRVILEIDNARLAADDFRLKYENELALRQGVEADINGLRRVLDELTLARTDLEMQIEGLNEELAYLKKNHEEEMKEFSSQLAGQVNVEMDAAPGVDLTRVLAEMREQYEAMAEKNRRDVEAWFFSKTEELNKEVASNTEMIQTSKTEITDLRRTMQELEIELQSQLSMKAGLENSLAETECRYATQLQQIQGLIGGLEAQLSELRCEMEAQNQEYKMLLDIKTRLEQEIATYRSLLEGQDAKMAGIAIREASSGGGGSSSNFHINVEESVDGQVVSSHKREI

| effect of a mutation on the interaction | Variant |
| --- | --- |
| with no effect | R385K |

Variants of: B2
Details: with af1l1_human AFAP1L1, Q8TED9

| effect of a mutation on the interaction | Variant |
| --- | --- |
| with no effect | G112S |

Variants of: B2
Details: with rwd2b_human RWDD2B

| effect of a mutation on the interaction | Variant |
| --- | --- |
| disrupting interaction strength | G112S |

Variants of: B3
Details: with hm20a_human HMG20A

| effect of a mutation on the interaction | Variant |
| --- | --- |
| with no effect | M646I |
| with no effect | D252G |

Variants of: B3
Details: with cep70_human CEP70, Q8NHQ1
Chain of cep70_human CEP70, Q8NHQ1 (Q8NHQ1 whole entry): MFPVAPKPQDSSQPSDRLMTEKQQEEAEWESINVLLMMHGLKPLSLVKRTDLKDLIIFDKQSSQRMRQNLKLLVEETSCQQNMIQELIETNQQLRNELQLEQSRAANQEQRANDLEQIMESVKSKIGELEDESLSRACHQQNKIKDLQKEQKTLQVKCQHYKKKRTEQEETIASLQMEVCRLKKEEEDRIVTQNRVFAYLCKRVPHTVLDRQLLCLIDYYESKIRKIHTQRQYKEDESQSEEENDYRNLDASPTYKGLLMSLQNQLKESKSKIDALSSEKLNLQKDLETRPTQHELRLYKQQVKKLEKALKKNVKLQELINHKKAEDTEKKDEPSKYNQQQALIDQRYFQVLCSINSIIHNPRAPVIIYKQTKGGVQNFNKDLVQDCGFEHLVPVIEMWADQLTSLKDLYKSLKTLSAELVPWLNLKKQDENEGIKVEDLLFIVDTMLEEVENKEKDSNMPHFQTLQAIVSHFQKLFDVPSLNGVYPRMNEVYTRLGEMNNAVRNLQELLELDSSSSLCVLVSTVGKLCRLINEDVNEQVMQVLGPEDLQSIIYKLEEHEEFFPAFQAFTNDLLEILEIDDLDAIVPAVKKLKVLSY

| effect of a mutation on the interaction | Variant |
| --- | --- |
| disrupting interaction strength | M646I |
| with no effect | D252G |

Variants of: B4
Details: with lrrf2_human LRRFIP2, Q9Y608

| effect of a mutation on the interaction | Variant |
| --- | --- |
| with no effect | E241G |

Variants of: B5
Details: with cc136_human CCDC136, Q96JN2
Chain of cc136_human CCDC136, Q96JN2 (Q96JN2 whole entry): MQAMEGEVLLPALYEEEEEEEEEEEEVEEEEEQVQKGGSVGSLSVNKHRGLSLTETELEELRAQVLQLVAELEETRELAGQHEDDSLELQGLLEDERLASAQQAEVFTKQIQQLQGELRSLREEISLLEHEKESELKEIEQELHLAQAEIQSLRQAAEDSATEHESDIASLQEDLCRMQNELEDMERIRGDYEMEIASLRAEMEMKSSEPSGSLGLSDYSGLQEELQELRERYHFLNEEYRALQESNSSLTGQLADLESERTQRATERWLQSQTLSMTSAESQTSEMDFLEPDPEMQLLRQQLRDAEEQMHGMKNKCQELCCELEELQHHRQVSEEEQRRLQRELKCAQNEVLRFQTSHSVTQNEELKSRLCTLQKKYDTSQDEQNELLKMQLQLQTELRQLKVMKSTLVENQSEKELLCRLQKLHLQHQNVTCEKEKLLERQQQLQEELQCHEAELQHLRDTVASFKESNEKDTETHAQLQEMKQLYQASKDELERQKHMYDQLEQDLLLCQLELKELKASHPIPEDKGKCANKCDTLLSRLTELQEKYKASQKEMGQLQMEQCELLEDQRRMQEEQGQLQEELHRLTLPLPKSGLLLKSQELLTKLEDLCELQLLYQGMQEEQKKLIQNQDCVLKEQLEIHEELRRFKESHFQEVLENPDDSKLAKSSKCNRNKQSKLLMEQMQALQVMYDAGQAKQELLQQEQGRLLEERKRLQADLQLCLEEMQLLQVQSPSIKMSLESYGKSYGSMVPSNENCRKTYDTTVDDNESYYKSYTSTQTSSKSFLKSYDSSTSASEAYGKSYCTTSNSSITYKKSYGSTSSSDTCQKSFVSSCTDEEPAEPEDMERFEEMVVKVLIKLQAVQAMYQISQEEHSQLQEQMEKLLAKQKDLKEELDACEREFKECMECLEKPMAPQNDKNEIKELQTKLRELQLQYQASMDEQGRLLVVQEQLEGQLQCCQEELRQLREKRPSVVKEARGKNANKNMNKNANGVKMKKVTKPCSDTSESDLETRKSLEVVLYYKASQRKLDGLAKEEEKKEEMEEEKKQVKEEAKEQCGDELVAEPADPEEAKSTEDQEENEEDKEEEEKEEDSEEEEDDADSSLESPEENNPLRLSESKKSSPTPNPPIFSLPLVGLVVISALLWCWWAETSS

| effect of a mutation on the interaction | Variant |
| --- | --- |
| with no effect | E32A |

Variants of: B5
Details: with mtus2_human MTUS2, Q5JR59
Chain of mtus2_human MTUS2, Q5JR59 (Q5JR59 whole entry): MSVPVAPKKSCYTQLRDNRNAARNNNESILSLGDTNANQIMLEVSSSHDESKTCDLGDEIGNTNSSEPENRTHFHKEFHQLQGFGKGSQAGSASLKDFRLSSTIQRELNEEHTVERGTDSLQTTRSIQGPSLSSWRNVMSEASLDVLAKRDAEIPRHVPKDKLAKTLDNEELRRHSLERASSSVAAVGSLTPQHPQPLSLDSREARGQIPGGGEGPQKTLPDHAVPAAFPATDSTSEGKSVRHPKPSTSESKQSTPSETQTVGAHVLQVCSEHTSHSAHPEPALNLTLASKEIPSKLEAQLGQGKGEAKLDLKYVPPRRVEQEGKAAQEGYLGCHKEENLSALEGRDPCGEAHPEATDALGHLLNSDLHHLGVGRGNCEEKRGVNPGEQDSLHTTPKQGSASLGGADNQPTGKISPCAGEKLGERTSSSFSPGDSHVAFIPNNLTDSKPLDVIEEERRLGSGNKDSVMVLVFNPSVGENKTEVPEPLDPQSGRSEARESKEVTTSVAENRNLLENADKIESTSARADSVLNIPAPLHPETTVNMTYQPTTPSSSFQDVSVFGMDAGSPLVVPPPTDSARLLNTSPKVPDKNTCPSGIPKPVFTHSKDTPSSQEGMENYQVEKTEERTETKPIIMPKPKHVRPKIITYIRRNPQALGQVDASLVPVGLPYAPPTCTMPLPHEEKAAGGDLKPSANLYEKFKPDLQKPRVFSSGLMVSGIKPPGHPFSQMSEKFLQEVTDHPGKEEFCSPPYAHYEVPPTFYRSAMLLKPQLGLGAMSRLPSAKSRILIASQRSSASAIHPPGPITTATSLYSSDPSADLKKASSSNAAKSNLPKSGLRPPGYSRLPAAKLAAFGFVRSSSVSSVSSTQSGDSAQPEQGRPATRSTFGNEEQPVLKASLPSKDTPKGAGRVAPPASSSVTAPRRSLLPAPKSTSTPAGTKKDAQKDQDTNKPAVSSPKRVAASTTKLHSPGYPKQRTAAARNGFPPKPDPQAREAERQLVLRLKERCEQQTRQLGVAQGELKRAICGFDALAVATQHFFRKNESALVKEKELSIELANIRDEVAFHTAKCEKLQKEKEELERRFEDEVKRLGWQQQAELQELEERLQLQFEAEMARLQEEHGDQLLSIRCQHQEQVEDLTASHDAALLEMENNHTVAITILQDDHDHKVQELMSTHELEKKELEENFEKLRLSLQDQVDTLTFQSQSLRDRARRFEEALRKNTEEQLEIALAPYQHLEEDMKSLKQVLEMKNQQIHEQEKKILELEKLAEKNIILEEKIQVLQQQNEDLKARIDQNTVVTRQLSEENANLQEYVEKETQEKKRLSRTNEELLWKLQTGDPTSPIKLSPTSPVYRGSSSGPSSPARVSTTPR

| effect of a mutation on the interaction | Variant |
| --- | --- |
| with no effect | E32A |

Variants of: B5
Details: with tri23_human TRIM23, P36406
Chain of tri23_human TRIM23, P36406 (P36406 whole entry): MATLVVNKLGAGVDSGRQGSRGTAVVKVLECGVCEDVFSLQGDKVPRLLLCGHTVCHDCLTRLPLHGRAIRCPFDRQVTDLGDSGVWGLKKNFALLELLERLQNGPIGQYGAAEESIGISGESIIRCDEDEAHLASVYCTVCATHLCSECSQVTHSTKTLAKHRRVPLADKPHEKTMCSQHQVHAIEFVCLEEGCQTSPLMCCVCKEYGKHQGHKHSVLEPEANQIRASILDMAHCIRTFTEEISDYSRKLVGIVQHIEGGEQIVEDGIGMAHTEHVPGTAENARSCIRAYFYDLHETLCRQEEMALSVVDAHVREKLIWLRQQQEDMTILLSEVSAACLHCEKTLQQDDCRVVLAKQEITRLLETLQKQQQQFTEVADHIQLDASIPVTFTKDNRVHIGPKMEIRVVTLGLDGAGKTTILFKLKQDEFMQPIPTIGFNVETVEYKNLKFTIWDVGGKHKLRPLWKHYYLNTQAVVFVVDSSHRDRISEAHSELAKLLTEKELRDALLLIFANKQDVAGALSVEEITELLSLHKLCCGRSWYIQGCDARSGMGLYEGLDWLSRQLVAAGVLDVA

| effect of a mutation on the interaction | Variant |
| --- | --- |
| with no effect | E32A |
